Test results from article PMC11413682.

molecular target: CUL2^ZYG11B (residues 490–728) (human) (UniProt Q9C0D3); assay: ITC; MicroCal iTC200; peptides (0.5–1 mmol/L) in the syringe, CUL2^ZYG11B(490–728) (0.03 mmol/L) in the cell; 18 injections of 2 μL; repeated 3 times
Sequence (Q9C0D3 490-728): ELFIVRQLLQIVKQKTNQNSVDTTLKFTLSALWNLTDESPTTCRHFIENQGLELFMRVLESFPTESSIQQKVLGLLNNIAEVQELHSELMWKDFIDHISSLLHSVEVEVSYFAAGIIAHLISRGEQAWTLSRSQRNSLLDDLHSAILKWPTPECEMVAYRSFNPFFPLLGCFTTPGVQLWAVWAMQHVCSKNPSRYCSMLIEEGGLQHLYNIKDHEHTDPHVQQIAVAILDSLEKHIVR

**Q.** Which Kd does the source give for SARS-CoV-2 ORF10 N5 peptide Y2F here?
**A.** 4.73 µM

**Q.** With SARS-CoV-2 ORF10 N5 peptide N4A as the substance, how does the Kd read?
**A.** 0.59 µM

**Q.** How did the Kd turn out when SARS-CoV-2 ORF10 N5 peptide I3F was run?
**A.** 0.87 µM

**Q.** Which fold decrease of binding against ORF10 N5 does the source give for SARS-CoV-2 ORF10 N5 peptide G1S here?
**A.** 4 fold

**Q.** How did the Kd turn out when SARS-CoV-2 ORF10 N5 peptide Y2A was run?
**A.** 25.2 µM

**Q.** How did the Kd turn out when SARS-CoV-2 ORF10 N5 peptide I3A was run?
**A.** 5.61 µM

**Q.** How did the fold decrease of binding against ORF10 N5 turn out when SARS-CoV-2 ORF10 N5 peptide G1A was run?
**A.** 4 fold
